According to the supplement of paper PMC12783771:
± gives the standard deviation of the averaged measurements.

B1: library; numbered along this chain (parent)
chain: MNIQIGELAKRTACPVVTIRFYEQEGLLPPPGRSRGNFRLYGEEHVERLQFIRHCRSLDMPLSDVRTLLSYRKRPDQDCGEVNMLLDEHIRQVESRIGALLELKHHLVELREACSGARPAQSCGILQGLSDCVCDTRGTTAHPSD

Key:
[1] = variants of: B1; test: sfGFP reporter fluorescence (15 h) (µM FITC); higher = higher leak; conditions: library round: Round 1; ligand: none
Description: (§1)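 Cell-free biosensing: 1 µL Echo-assembled CFE reactions with linear PbrR variant templates (5 nM) and pPbrR-sfGFP reporter, with 1 µM Pb, 30 µM Zn or no ligand; endpoint sfGFP fluorescence after 15 h at 30 °C calibrated as µM FITC. Round 1 ML-predicted PbrR mutants; 3 biological replicates.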

[2] = variants of: B1; test: sfGFP reporter fluorescence (15 h) (µM FITC); higher = stronger transcriptional activation; conditions: library round: Round 1
Description: as §1

Variant	sfGFP reporter fluorescence [1]	sfGFP reporter fluorescence ([2]; ligand: 1 µM Pb)	sfGFP reporter fluorescence ([2]; ligand: 30 µM Zn)
MNIQIGELAKRTACPVVTIRFYEQEGLLPPPGRSRGNFRLYGEEHVERLQFIRHCRSLDLPLSKVRTLLSYRKRPDQDCGEVNMLLDEHIRQVESRIGALLELKHHLVELLEACSGARPAQSCGILQGLSDCVCDTRGTTAHPSD [M60L D64K R111L]	0.205 ± 0.0039	0.676 ± 0.1	1.99 ± 0.49
MNIQIGELAKRTACPVVTIRFYEQEGLLPPPGRSRGNFRLYGEEHVERLQFIRHCRSLDMPLSKVRTLLSYRKRPDQDCGEVNMLLDEHIRQVESRIGALLELKHHLVELDEACSGARPAQSCGILQGLSDCVCDTRGTTAHPSD [D64K R111D]	0.0666 ± 0.00092	0.164 ± 0.011	0.682 ± 0.097
MNIQIGELAKRTACPVVTIRFYEQEGLLPPPGRSRGNFRLYGEEHVERLQFIRHCRSLDMPLSDVRTLLSYRKRPDQDCGEVNMLLDEHIRQVYSRIGALLELKHHLVELREACSGARPAQSCGILQGLSDCVCDTRGTTAHCSD [E94Y P143C]	0.0629 ± 0.0031	0.0621 ± 0.0044	0.0906 ± 0.0035
MNIQIGELAKRTACPVVTIRFYEQEGLLPPPGRSRGNFRLYGEEHVERLQFIRHCRSLDMPLSDVRTLLSYRKRPDQDCGEVNMLLDEHIRQVESRIGALLELKHHLVELREACSGARPAQSCGILQGLSSCVVDTRGTTAHPSD [D131S C134V]	0.072 ± 0.005	0.126 ± 0.0046	1.34 ± 0.045
MNIQIGELAKRTACPVVTIRFYEQEGLLPPPGRSRGNFRLYGEEHVERLQFIRHCRSLDMPLSDVRTLLSYRKRPDQDCGEVNMLLDEHIRQVESRIGALLELKHHLVELREACSGARPAQSCGILQHLSDCVCDTRGTTAHWSD [G128H P143W]	0.0661 ± 0.0013	0.086 ± 0.0043	0.159 ± 0.012
MNIQIGELAKRTACPVVTIRFYEQEGLLPPPGRSRGNFRLYGEEHVERLQFIRHCRSLDMPLSDVRTLLSYRKRPDQDCGEVNMLLDEHIRQVESRIGALLELKHHLVELREACSGARPAQSCGILQGLSDCVCATRGTTAHFSD [D135A P143F]	0.0621 ± 0.0018	0.0718 ± 0.0013	0.299 ± 0.028
MNIQIGELAKRTACPVVTIRFYEQEGLLPPPGRSRGNFRLYGEEHVERLQFIRHCRSLDMPLSDVRTLLSYRKRPDQDCGEVTMLLDEHIRQVESRIGALLELKHHYVELREACSGARPAQSCGILQGLSDCVCDTRGTTAHPSD [N83T L107Y]	0.0672 ± 0.0015	0.0739 ± 0.0066	0.0947 ± 0.0046
